# Experimental data reported in patent US12472269B2, “Liver-specific inducible promoters and methods of use thereof” (ASKBIO INC., priority 2019, dated 2025).
# B1: PB1-2-CMV: promoter: 3 mouse PBREM elements with CMV minimal promoter, SEQ ID NO: 17 (nucleic acid)
# DNA: TCTGTACTTTCCTGACCTTGGCACAGTGCCACCATCAACTTGCCTGACACCCATTACTCGCATCCATTCTCTCTGTACTTTCCTGACCTTGGCACAGTGCCACCATCAACTTGCCTGACACCGCACTGAAGGTCCTCAATCGTCTGTACTTTCCTGACCTTGGCACAGTGCCACCATCAACTTGCCTGACACCGCTGGGAGTTCGTAGACGGAGCGATTAATCCATATGCAGGTCTATATAAGCAGAGCTCGTTTAGTGAACCGTCAGATCGCCTAGATACGCCATCCACGCTGTTTTGACCTCCATAGAAGATCGCCACCC
# modifications: PB1-2-CMV
# B2: CMV-IE: strong viral CMV-IE comparative promoter, SEQ ID NO: 52 (nucleic acid)
# DNA: GACATTGATTATTGACTAGTTATTAATAGTAATCAATTACGGGGTCATTAGTTCATAGCCCATATATGGAGTTCCGCGTTACATAACTTACGGTAAATGGCCCGCCTGGCTGACCGCCCAACGACCCCCGCCCATTGACGTCAATAATGACGTATGTTCCCATAGTAACGCCAATAGGGACTTTCCATTGACGTCAATGGGTGGAGTATTTACGGTAAACTGCCCACTTGGCAGTACATCAAGTGTATCATATGCCAAGTACGCCCCCTATTGACGTCAATGACGGTAAATGGCCCGCCTGGCATTATGCCCAGTACATGACCTTATGGGACTTTCCTACTTGGCAGTACATCTACGTATTAGTCATCGCTATTACCATGGTGATGCGGTTTTGGCAGTACATCAATGGGCGTGGATAGCGGTTTGACTCACGGGGATTTCCAAGTCTCCACCCCATTGACGTCAATGGGAGTTTGTTTTGGCACCAAAATCAACGGGACTTTCCAAAATGTCGTAACAACTCCGCCCCATTGACGCAAATGGGCGGTAGGCGTGTACGGTGGGAGGTCTATATAAGCAGAGCT
# modifications: CMV-IE comparative promoter
# B3: PB1-3-CMV: promoter: 4 mouse PBREM elements with CMV minimal promoter, SEQ ID NO: 18 (nucleic acid)
# DNA: TCTGTACTTTCCTGACCTTGGCACAGTGCCACCATCAACTTGCCTGACACCCATTACTCGCATCCATTCTCTCTGTACTTTCCTGACCTTGGCACAGTGCCACCATCAACTTGCCTGACACCGCACTGAAGGTCCTCAATCGTCTGTACTTTCCTGACCTTGGCACAGTGCCACCATCAACTTGCCTGACACCCTGACCTCCTGCCAGCAATATCTGTACTTTCCTGACCTTGGCACAGTGCCACCATCAACTTGCCTGACACCGCTGGGAGTTCGTAGACGGAGCGATTAATCCATATGCAGGTCTATATAAGCAGAGCTCGTTTAGTGAACCGTCAGATCGCCTAGATACGCCATCCACGCTGTTTTGACCTCCATAGAAGATCGCCACCC
# modifications: PB1-3-CMV
# Columns and labels:
# [1] = test system: Huh7 cells; assay: EPO expression (ELISA of medium) from PB1-MinTK in Huh7 cells with CAR-containing plasmid, induction by CITCO; type: cell-based, human; settings: 22% vs 40% of CMV-IE with PB1-MinTK
# From the text: • Huh7 cells which are a human liver cell line • DPBS: without CaCl2, without MgCl2 (Gibco, 14190-094) • DMEM (Sigma, D6546) • FBS (Sigma, F9665) • Pen-Strep (Sigma, P4333) • Promega Fugene-HD (E2311) • TCPOBOP (Sigma, T2320) • CITCO (Cayman Chemicals Company, 16027) • pcDNA6 plasmid which contains the β-galactosidase gene used as internal control for transfection efficiency (Thermofisher, V22020) • mouse CAR expression plasmid from Jouan et al, 2016 (BioCat GmbH, EX-Z4288-M51-10-GC). This was used as Huh7 is CAR deficient. • β-galactosidase substrate solution (Thermofisher, 75707/75710) • Pierce BCA kit (23225) • LARII (Dual Luciferase Reporter 1000 assay system, Promega, E1980) • EPO ELISA kit (Abcam, ab119522) Method: Day 1 • Cells were seeded onto a 48 well plate at a density of 25,000 cells/300 μl Day 2 • On the day of transfection, DNA to be transfected (CAR plasmid/PB1-MinTK operably linked with luciferase or EPO/pcDNA6 plasmid for internal control) was diluted to a 100 ng/μl stock solution. Per 48 Well Transfection: • 45 ng of DNA (15 ng of each plasmid, pcDNA6, CAR and test plasmid) was mixed with 4.1 μl of Optimem medium. • 0.5 μl of Fusion HD was mixed with 4 μl of Optimem medium. • These 2 solutions were mixed and incubated at room temperature for 15 minutes. • The final solution was then added to the well drop wise. • 3 hrs after transfection, the inducer TCPOBOP was added to the appropriate wells at the indicated concentration. Day 3 • 24 hrs after induction the media was removed from the cells. • The cells were washed once in 300 μl of DPBS • Cells were lysed using 100 μl of passive lysis buffer and incubation with rocking for 15 minutes • The cell debris was pelleted by centrifugation of the plate at max speed in a benchtop centrifuge for 1 min • For luciferase, 10 μl sample was transferred into white 96-well plate and luminescence measured by injection of 50 μl of LARII substrate. • β-galactosidase activity was measured as per manufacturer's instructions (Mammalian β-Galactosidase Assay Kit, 75707/75710, Thermo Scientific) using 25 μl of lysate. 25 μl of lysate was transferred into a microplate well and mixed with 25 μl of β-galactosidase Assay Reagent, equilibrated to room temperature. The mixture was incubated at 37° C. for 30 min and absorbance measured at 405 nm. • Protein concentration was measured as per manufacturer's instructions (Pierce™ BCA Protein Assay Kit, 23225/23227, Thermo Scientific) using 25 μl of lysate. 25 μl of lysate was transferred into a microplate well and mixed with 200 μl of working solution. The mixture was incubated at 37° C. for 30 min, cooled to room temperature and then absorbance measured around 562 nm. The protein concentration was calculated with respect to protein standard curve prepared from assaying standards with known protein concentration.
# Transfections with PB1-MinTk-EPO were performed as described above with the exception that EPO is secreted into the medium. Therefore, medium was collected, and EPO concentration measured as per manufacturer's instructions (ab119522 Erythropoietin (EPO) Human ELISA Kit, Abcam) using an ELISA assay. 50 μl of medium was transferred to a pre-washed microplate wells and mixed with 50 μl of 1× Biotin Conjugated Antibody. The mixture was incubated at room temperature for 1 hour. The wells were washed, 100 μl of Streptavadin-HRP was added and the plate was incubated at room temperature for 15 minutes. The wells were washed and then 100 μl of TMB Substrate Solution. The mixture was incubated at room temperature for 10 minutes. The enzyme reaction was stopped by addition of 100 μl of Stop Solution and absorbance was read at 450 nm. The EPO concentration was calculated with respect to EPO standard curve prepared from assaying standards with known EPO concentration.
# The PB1-MinkTK promoter was then used to drive expression of the protein EPO, which is of therapeutic interest. […]
# [2] = test system: AXOL ARE-hepatocytes; assay: Luciferase expression from PBREM promoters in AXOL ARE-hepatocytes, induction by CITCO; type: cell-based, human; settings: for induced luciferase expression as a ratio to CMV-IE: induction with CITCO, mean of 3 biological replicates
# From the text: Axol Assay-Ready Expanded (ARE) Hepatocytes are primary human hepatocytes that have been expanded in vitro. Large batch sizes (up to 2000 vials) are available, ensuring a reliable, ready-to-use and consistent source of primary hepatocytes. ARE Hepatocytes express CYP enzymes, are metabolically functional, are polarized and can be infected by the Hepatitis C virus. AXOL ARE-hepatocytes express CAR negating the need to transfect with a CAR-expressing plasmid.
# • AXOL assay-ready expanded (ARE) hepatocytes (Axol, ax3701) • ARE hepatocyte thawing medium (Axol, ax3705) • ARE maintenance medium (Axol, ax3710) • Virimer red transfection reagent (Lipocalyx, VR04-02-15) • CITCO, lucifierase, β-galactosidase and BCA kits as described above
# ARE hepatocytes were cultured and transfected as described in the manufacturer's manual. 200,000 cells were seeded in 2 ml culture medium in collagen-coated 6 well plate. The cells were incubated for 4 h at 37° C. and 5% CO2 for sufficient adhesion. 200 μl of transfection mixture containing the DNA to be transfected (PB1-MinTK/PB1-CMV/PB1-SV40 operably linked with luciferase and β-galactosidase containing promoter) was added and the cells were incubated on an orbital shaker at 100 rpm for three hours at 37° C. and 5% CO2. 3 hrs after transfection CITCO was added to the appropriate wells. Cells were incubated under static conditions at 37° C. and 5% CO2 overnight and in the morning the medium was replaced with fresh ARE Hepatocyte Maintenance Medium. Readout was 24 hrs after induction. […]
# [3] = test system: CD1 male mice; assay: In vivo bioluminescence imaging of mice injected with AAV9 constructs, induction by phenobarbital; settings: AAV9 via tail vein
# Description: • Seed HEK 293-AAV cells in 15 cm plates. To be 70-80% confluent on the day of transfection • Final volume on each plate: 15 ml Day 2: Prepare Transfection Mix: • DNA mix/plate: pDG9 (Packaging plasmid for AAV9): 10.5 μg/pHGTI (Ad. Helper plasmid): 31.5 μg/Vector plasmid: 10.5 μg/Prepare in serum free DMEM/Optimem • Transfer mix/plate: PEI: 125 μl/Prepare in serum free DMEM/Optimem • Add DNA mix into transfection mix. Mix and leave at room temperature for 15-20 mins. • Add 3 ml of transfection mix to each plate drop-wise and gently distribute. Incubate for 24 h. Day 3: • Replace media with 15 ml DMEM supplemented with P/S and 2% FCS. Leave for 48 h. Day 5: • Collect supernatant and pool in 50 ml tubes, 25 ml each tube. Store at −20° C. • Collect cells: Add 5 ml of PBS to each plate→scrape and collect in 50 ml tubes. • To wash plates, add another 1 ml of PBS and collect. • Spin at 1500 rpm for 5 mins. • Remove supernatant and resuspend pelleted cells in 1 ml/plate TD lysis buffer→pool • Store at −80′C. Endonuclease Treatment Cells: • Freeze and thaw pellets 5 times→˜20 mins at 37° C. then ˜20 mins in dry ice (or −80° C.). • Add 25 μl/ml cells of 20% Deoxycholate (or 50 μl/ml of 10% Deoxycholate). • Add 8 μl/ml cells of benzonase. • Incubate at 37° C. for 30 mins. • Spin at 4 Krpm for 30 mins. • Filter supernatant using […] filters. • Store at 4° C. for up to 24 h. Supernatant: • Add 2.5 μl/25 ml supernatant of benzonase. • Add 50 μl/25 ml supernatant of MgSO4. • Incubate at 37° C. for 30 mins. • Spin at 4 Krpm for 30 mins. • Filter supernatant using […] filters. • Store at 4′C for up to 24 h. Hplc Purification • Place both lines in 20% ETOH→template→system wash • Put line A in PBS and line B in Glycine→template→system wash • Place the column in the machine→manual run→flowrate: 5 ml/min→Run for 25 ml or until the UV line is flat. • Prepare FACS tubes (10 for cells and more for supernatant): add 30 μl/tube Tris→put in the machine to collect vectors. • Place the waste lines in a separate tube to be able to run them again through the column. • Run samples (flowrate low, depending on how fast the system and how concentrated the sample is; for cells it is slower, for supernatant it is higher). • After running the waste through the column, wash with PBS→flowrate: 5 ml/min until the UV line is flat. • Set→fraction size: 1 ml; Flowrate: 1 ml/min; concentration % B: 100%→run. • Start collecting: Look for the peak. The peak indicates vector purification. Mark the tubes containing these vectors. • Save programme before exiting. • Wash with PBS→75 ml, 5 ml/min • Wash with Na3PO4 (to store the column in)→75 ml, 5 ml/min • Remove column and store at 4° C. • Wash the machine with PBS→template→system wash • Wash the machine with 20% ETOH→template→system wash • Put both lines in 20% ETOH and shut down • Add 2 L of PBS into a big bucket and put the Dialysis cassette (Side-A-Lyzer; Thermo scientific) to prime. • Collect the vectors from the marked FACS tubes using a syringe and needle and add into the dialysis cassette→remove excess air from the membrane, carefully place the rubber on top of the cassette and let it float in the PBS-containing bucket→leave over night at room temperature on a slow rotating rotor. Next Day: • Prime membrane by adding 5 ml PBS onto a centrifugal filter (Amico Ultra 15; MERCK)→spin for 5 mins at 4 Krpm • Remove excess PBS from inside the membrane. • Take vectors out from the cassette and load onto the membrane→spin for 5 mins at 4 Krpm • Wash the membrane with the vectors inside few times, then collect into 2 ml centrifuge tube filter 0.22 μM (Spin-X; COSTAR) • Spin for 3 mins at 13 Krpm. • Remove filter and aliquot: 1×100 μl (for injection), the rest in 10-2 μl aliquots. • Store in −80° C. • Virus quantification was performed using qRT-PCR with primers and probes for the luciferase gene. Mice Experiment […]
molecule,measurement,setting,value
"Clc1ccc(-c2nc3sccn3c2C=NOCc2ccc(Cl)c(Cl)c2)cc1 [CITCO, 6-(4Chlorophenyl)imidazo[2,1-b][1,3]thiazole-5-carbaldehyde-O-(3,4-dichlorobenzyl)oxime, reference compound]",strength as inducer of CAR activity,[1],weaker inducer of CAR activity than TCPOBOP
B1,induced luciferase expression as a ratio to CMV-IE,[2],2.67
B2,induction of luciferase expression,"[2]; 1 μM CITCO, readout 24 hrs after induction",~2 fold
same,tissue distribution of luciferase expression,[3],expressing in almost all tissues of the mouse
B3,induced luciferase expression as a ratio to CMV-IE,[2],2.67
